Measurements from patent US20240141072A1 (published 2024).
Read-outs that look alike come from different tables or passages of the source.

T1: human DLL3 on DLL3-expressing tumor cell lines (human, UniProt Q9NYJ7 27-618)
T1 sequence: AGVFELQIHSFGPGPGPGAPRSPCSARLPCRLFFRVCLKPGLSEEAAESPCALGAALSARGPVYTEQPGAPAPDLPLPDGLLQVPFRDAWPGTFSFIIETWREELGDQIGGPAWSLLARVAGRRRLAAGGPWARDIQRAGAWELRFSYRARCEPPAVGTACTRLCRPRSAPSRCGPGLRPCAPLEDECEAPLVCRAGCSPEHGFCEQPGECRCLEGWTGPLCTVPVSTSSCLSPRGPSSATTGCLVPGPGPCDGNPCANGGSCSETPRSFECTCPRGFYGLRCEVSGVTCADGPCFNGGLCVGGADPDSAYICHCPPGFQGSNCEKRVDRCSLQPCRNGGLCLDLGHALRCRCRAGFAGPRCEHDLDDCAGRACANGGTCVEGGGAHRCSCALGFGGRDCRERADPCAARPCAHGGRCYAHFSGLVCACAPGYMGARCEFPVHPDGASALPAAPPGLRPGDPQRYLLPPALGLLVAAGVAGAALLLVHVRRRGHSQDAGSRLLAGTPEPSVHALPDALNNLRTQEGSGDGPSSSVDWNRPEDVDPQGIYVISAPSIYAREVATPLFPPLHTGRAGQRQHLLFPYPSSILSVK

T2: cynomolgus DLL3 (cynomolgus, UniProt A0A2K5WSR1 27-490)
T2 construct: also called cyDLL3
T2 sequence: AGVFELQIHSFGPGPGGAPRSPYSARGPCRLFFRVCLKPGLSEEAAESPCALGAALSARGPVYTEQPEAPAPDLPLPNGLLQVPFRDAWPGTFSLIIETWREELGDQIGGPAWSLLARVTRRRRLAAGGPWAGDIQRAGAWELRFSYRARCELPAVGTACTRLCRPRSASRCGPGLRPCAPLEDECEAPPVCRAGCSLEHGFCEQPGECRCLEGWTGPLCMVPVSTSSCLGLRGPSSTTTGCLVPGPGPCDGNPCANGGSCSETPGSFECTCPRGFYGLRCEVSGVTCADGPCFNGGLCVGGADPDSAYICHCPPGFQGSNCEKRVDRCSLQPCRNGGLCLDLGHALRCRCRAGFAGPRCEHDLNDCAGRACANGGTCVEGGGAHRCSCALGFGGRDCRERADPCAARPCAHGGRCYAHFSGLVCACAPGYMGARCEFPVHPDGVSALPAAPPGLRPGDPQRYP

T3: biotinylated human DLL3 protein expressed as a human IgG1 fusion protein (human, UniProt Q9NYJ7 27-492, limits assumed, biotinylated)
T3 sequence: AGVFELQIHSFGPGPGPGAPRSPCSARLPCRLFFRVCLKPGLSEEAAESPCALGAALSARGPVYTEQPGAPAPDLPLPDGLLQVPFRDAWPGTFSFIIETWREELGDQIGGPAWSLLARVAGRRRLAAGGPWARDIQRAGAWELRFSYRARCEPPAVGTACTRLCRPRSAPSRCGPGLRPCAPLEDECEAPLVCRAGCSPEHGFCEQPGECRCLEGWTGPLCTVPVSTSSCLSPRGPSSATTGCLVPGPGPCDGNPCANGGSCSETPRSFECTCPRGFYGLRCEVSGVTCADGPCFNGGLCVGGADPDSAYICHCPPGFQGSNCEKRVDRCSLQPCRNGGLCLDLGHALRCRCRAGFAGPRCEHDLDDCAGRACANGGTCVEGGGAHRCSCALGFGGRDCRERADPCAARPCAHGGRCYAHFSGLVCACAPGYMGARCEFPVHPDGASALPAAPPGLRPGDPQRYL

B1: 1H012 anti-DLL3 trispecific protein (other)
chain: EVQLVESGGGLVQPGGSLTLSCVASGSTSSINAMGWYRRAPGKQRELVAGISSDGSKVYVDSVKGRFTISRDNAKNSVYLQMNSLRAEDTAVYYCYYFRTVSGSSMPYWGQGTLVTVSS
notes: also called 1H12; not shown: linker 1808, anti-albumin sdAb, linker 1808, anti-CD3 fragment, His6 1819
B2: 1A011 anti-DLL3 trispecific protein (other)
chain: EVQLVESGGGLVQPGGSLTLSCVASGSTSSINAIGWYRRAPGKQRELVAGISSDGSKVYIDSVKGRFTISRDNAKNSVYLQMNSLRAEDTAVYYCYYFRTVSGSSYRYWGQGTLVTVSS
notes: also called 1A11; not shown: linker 1808, anti-albumin sdAb, linker 1808, anti-CD3 fragment, His6 1819
B3: 2C04 anti-DLL3 trispecific protein (other)
chain: EVQLVESGGGLVQPGGSLTLSCVASGSTSSRNAMGWYRRAPGKQRELVAGISSDGSKLYADSVKGRFTISRDNAKNSVYLQMNSLRAEDTAVYYCYYFRTVLGSSMRYWGQGTLVTVSS
notes: not shown: linker 1808, anti-albumin sdAb, linker 1808, anti-CD3 fragment, His6 1819
B4: 2E02 anti-DLL3 trispecific protein (other)
chain: EVQLVESGGGLVQPGGSLTLSCVASGSTSAINAMGWYRRAPGKQRELVAGISSDGSKVYVDSVKGRFTISRDNAKNSVYLQMNSLRAEDTAVYYCYYFRTVSGSSQRYWGQGTLVTVSS
notes: as for B3
B5: 2E05 anti-DLL3 trispecific protein (other)
chain: EVQLVESGGGLVQPGGSLTLSCVASGSPSSINAYGWYRRAPGKQRELVAGISSDGSKVYSDSVKGRFTISRDNAKNSVYLQMNSLRAEDTAVYYCYYFRTVSGSSMSYWGQGTLVTVSS
notes: as for B3
B6: 2H02 anti-DLL3 trispecific protein (other)
chain: EVQLVESGGGLVQPGGSLTLSCVASGSTSSINAMAWYRRAPGKQRELAAGISSDGSKVYADSVKGRFTISRDNAKNSVYLQMNSLRAEDTAVYYCYYFHTVSGSSMRYWGQGTLVTVSS
notes: as for B3
B7: 3A02 anti-DLL3 trispecific protein (other)
chain: EVQLVESGGGLVQPGGSLTLSCAASGSSVSFLSLAWYRQAPGKKRELVAGISADGSTAYIDSVKGRFTISRDNAKNSVYLQMNSLRAEDTAVYYCYAYRWRTRYTYWGQGTLVTVSS
notes: as for B3
B8: 3C04 anti-DLL3 trispecific protein (other)
chain: EVQLVESGGGLVQPGGSLTLSCAASGSHVSFLSMAWYRQAPGKKRELVAGISADGPTDYIDSVKGRFTISRDNAKNSVYLQMNSLRAEDTAVYYCYAYRWDTRYTYWGQGTLVTVSS
notes: as for B3
B9: 4D09 anti-DLL3 trispecific protein (other)
chain: EVQLVESGGGLVQPGGSLTLSCAASGSSVKFLSMAWYRQAPGKKRELVAGISADGSTDYILSVKGRFTISRDNAKNSVYLQMNSLRAEDTAVYYCYAYEWTTRYTYWGQGTLVTVSS
notes: as for B3
B10: 4D011 anti-DLL3 trispecific protein (other)
chain: EVQLVESGGGLVQPGGSLTLSCAASGSSVRFLSMAWYRQAPGKKRELVAGISVDGSTDYIDSVKGRFTISRDNAKNSVYLQMNSLRAEDTAVYYCYAYRWRTRYTYWGQGTLVTVSS
notes: also called 4D11; not shown: linker 1808, anti-albumin sdAb, linker 1808, anti-CD3 fragment, His6 1819
B11: 4H011 anti-DLL3 trispecific protein (other)
chain: EVQLVESGGGLVQPGGSLTLSCAASGSSVSRLSMAWYRQAPGKKRELVAGISVDGSTDYIDSVKGRFTISRDNAKNSVYLQMNSLRAEDTAVYYCYAYRWTTRLTYWGQGTLVTVSS
notes: also called 4H11; not shown: linker 1808, anti-albumin sdAb, linker 1808, anti-CD3 fragment, His6 1819
B12: 3A011 anti-DLL3 trispecific protein (other)
chain: EVQLVESGGGLVQPGGSLTLSCAASGSSVSFLSLAWYRQAPGKKRELVAGISTDGSTDYIDSVKGRFTISRDNAKNSVYLQMNSLRAEDTAVYYCYAYRWRTRYTYWGQGTLVTVSS
notes: as for B3

How the values were obtained:
[1] = target: T1, human DLL3 on DLL3-expressing tumor …; experiment: cell-based or functional assay
cynomolgus DLL3 = target: T2, cynomolgus DLL3; experiment: Octet BLI, single 60 nM
[2] = target: T1, human DLL3 on DLL3-expressing tumor …; experiment: cell-based or functional assay; remark: listed apart in the source
[3] = target: T1, human DLL3 on DLL3-expressing tumor …; experiment: cell-based or functional assay; remark: listed apart in the source
[4] = target: T3, biotinylated human DLL3 protein …; experiment: Octet BLI, 60/20/6.67/2.22 nM
Method: Using the conditioned medium with known concentrations of the anti-DLL3 trispecific proteins, the binding affinities of the anti-DLL3 trispecific proteins toward human DLL3 protein were measured using a method where biotinylated version of human DLL3 protein were expressed as a human IgG1 fusion protein, and the binding affinity measurement was carried out in an Octet instrument with streptavidin tips.

[5] = target: T3, biotinylated human DLL3 protein …; experiment: Octet BLI, single 50 nM
In short: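 Anti-DLL3 trispecific proteins were tested directly from conditioned medium in which their concentrations were known. The tip-captured DLL3 fusion served as the immobilised partner, and binding affinity toward human DLL3 was determined from the Octet measurement.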

| Binder | DMS-153 TDCC EC50 [1] [nM] | Kd (cynomolgus DLL3) [nM] | fold increase in TDCC potency compared to the parental DLL3 binder DH43 [2] [fold] | DMS-153 TDCC EC50 [3] [nM] | Kd [4] [nM] | Kd [5] [nM] | fold increase in TDCC potency compared to the parental DLL3 binder molecule (DH6) [2] [fold] |
| --- | --- | --- | --- | --- | --- | --- | --- |
| B1 | 0.028 | 4.3 | > 7 | 0.063 | 2.9 | 3.5 |  |
| B2 | 0.051 | 3.6 |  | 0.17 | 3.5 | 3.7 |  |
| B3 |  |  |  | 0.043 |  | 6.8 |  |
| B4 | 0.059 | 3.4 |  | 0.12 | 4.4 | 6 |  |
| B5 | 0.033 | 4.8 |  | 0.072 | 3.5 | 3.9 |  |
| B6 | 0.031 | 5.2 |  | 0.096 | 4.4 | 4.4 |  |
| B7 |  | 9.5 |  |  | 7.8 | 8.1 |  |
| B8 | 0.052 | 5.7 |  |  | 4 | 4.5 |  |
| B9 | 0.052 | 8.2 |  | 0.06 | 8.1 | 4.7 |  |
| B10 |  |  |  | 0.098 |  | 5.8 |  |
| B11 | 0.036 | 5.7 |  |  | 3.9 | 4.5 | > 8 |
| B12 |  | 8.8 |  |  | 7.3 | 6.8 |  |
